{"source": "patent US20170247465A1", "about": "“COMBINATION THERAPY FOR TREATMENT OF CANCER” (OncoMed Pharmaceuticals, Inc., priority 2014, published 2017)", "key": {"[1]": {"system": "OMP-C28 colon tumor cells", "assay": "OMP-C28 colon tumor xenograft, staggered dosing of Wnt inhibitors and nab-paclitaxel (Example 10)", "format": "in vivo, NOD/SCID mice", "details": "Wnt pathway inhibitor 25 mg/kg every two weeks, administered 2 days prior to nab-paclitaxel 15 mg/kg once a week, i.p.; versus single agents; FIG. 8", "method": "FIG. 8A-8B. Inhibition of colon tumor growth in vivo by a Wnt pathway inhibitor in combination with a taxane using a staggered dosing schedule. FIG. 8A. OMP-C28 colon tumor cells were injected subcutaneously into NOD/SCID mice. Mice were treated with control antibody (-•-), OMP-18R5 (-▴-), nab-paclitaxel (-▪-), or a combination of OMP-18R5 and nab-paclitaxel, where OMP-18R5 was administered 2 days prior to administration of nab-paclitaxel (-⋄-). FIG. 8B. OMP-C28 colon tumor cells were injected subcutaneously into NOD/SCID mice. Mice were treated with control antibody (-•-), OMP-54F28 (-▴-), nab-paclitaxel (-▪-), or a combination of OMP-54F28 and nab-paclitaxel, where OMP-54F28 was administered 2 days prior to administration of nab-paclitaxel (-⋄-). OMP-18R5, OMP-54F28 and control were administered at 25 mg/kg and nab-paclitaxel was administered at 15 mg/kg. OMP-18R5, OMP-54F28 and control were administered once every two weeks, paclitaxel was administered once a week, and all agents were administered intraperitoneally. Data is shown as tumor volume (mm^3) over days post treatment.\nSingle cell suspensions of xenograft OMP-C28 colon tumor cells were injected subcutaneously into 6-8 week old NOD/SCID mice. […] Tumor growth was monitored and tumor volumes were measured with electronic calipers at the indicated time points. Data are expressed as mean±S.E.M."}, "[2]": {"system": "OMP-B90 breast tumor cells", "assay": "OMP-B90 breast tumor xenograft, staggered dosing of Wnt inhibitors and paclitaxel (Example 9)", "format": "in vivo, NOD/SCID mice", "details": "Wnt pathway inhibitor 25 mg/kg every two weeks, administered 2 days prior to paclitaxel 10 mg/kg once a week, i.p., FIG. 7", "method": "FIG. 7A-7B. Inhibition of breast tumor growth in vivo by a Wnt pathway inhibitor in combination with a taxane using a staggered dosing schedule. FIG. 7A. OMP-B90 breast tumor cells were injected subcutaneously into NOD/SCID mice. Mice were treated with control antibody (-•-), paclitaxel (-▴-), a combination of OMP-18R5 and paclitaxel, where OMP-18R5 was administered on the same day as paclitaxel (-□-), or a combination of OMP-18R5 and paclitaxel, where OMP-18R5 was administered 2 days prior to administration of paclitaxel (-⋄-). FIG. 7B. OMP-B90 breast tumor cells were injected subcutaneously into NOD/SCID mice. Mice were treated with control antibody (-•-), OMP-54F28 (-▪-), paclitaxel (-▴-), a combination of OMP-54F28 and paclitaxel, where OMP-54F28 was administered on the same day as paclitaxel (-□-), or a combination of OMP-54F28 and paclitaxel, where OMP-54F28 was administered 2 days prior to administration of paclitaxel (-⋄-). OMP-18R5, OMP-54F28 and control antibody were administered at 25 mg/kg and paclitaxel was administered at 10 mg/kg. […]\nSingle cell suspensions of xenograft OMP-B90 breast tumor cells were injected subcutaneously into 6-8 week old NOD/SCID mice. […] Tumor growth was monitored and tumor volumes were measured with electronic calipers at the indicated time points. Data are expressed as mean±S.E.M."}, "[3]": {"assay": "Phase 1b study of vantictumab in combination with docetaxel in NSCLC patients / Phase 1 program", "format": "in vivo", "details": "Cohorts 1 and 2: vantictumab 5 and 10 mg/kg Day 1 of 21-day cycle with docetaxel 75 mg/m^2", "source_text": "The study is an open-label Phase 1b dose-escalation study of vantictumab in combination with docetaxel in patients with previously treated recurrent or advanced non-small cell lung cancer (NSCLC). The primary objectives of the study are to determine the safety and the maximum tolerated dose of vantictumab in combination with docetaxel. To identify a recommended Phase 2 dose for vantictumab in combination with docetaxel. The secondary objectives are to characterize the pharmacokinetics (PK) of vantictumab when administered in combination with docetaxel, to characterize the immunogenicity of vantictumab, and to make preliminary assessment of vantictumab efficacy when administered in combination with docetaxel.\nVantictumab is administered on Day 1 of each 21-day cycle. The dose levels of vantictumab for Cohorts 1 and 2 were 5 mg/kg and 10 mg/kg, respectively. For Cohorts 1 and 2, docetaxel (75 mg/m^2) is administered IV on Day 1 of each cycle. […] Patients of Cohorts 3 and 4 will be administered vantictumab at 2 mg/kg and 4 mg/kg once every 3 weeks, respectively. No dose escalation of vantictumab will be allowed within a dose cohort. A staggered dosing regimen will be evaluated in Cohorts 3 and 4. Docetaxel (75 mg/m^2) will be administered IV on Day 3 of each cycle."}}}
{"molecule": "OMP-18R5: anti-FZD antibody, IgG2, also known as vantictumab; heavy chain SEQ ID NO:3, light chain SEQ ID NO:4 (antibody) heavy: EVQLVESGGGLVQPGGSLRLSCAASGFTFSHYTLSWVRQAPGKGLEWVSVISGDGSYTYYADSVKGRFTISSDNSKNTLYLQMNSLRAEDTAVYYCARNFIKYVFANWGQGTLVTVSSASTKGPSVFPLAPCSRSTSESTAALGCLVKDYFPEPVTVSWNSGALTSGVHTFPAVLQSSGLYSLSSVVTVPSSNFGTQTYTCNVDHKPSNTKVDKTVERKCCVECPPCPAPPVAGPSVFLFPPKPKDTLMISRTPEVTCVVVDVSHEDPEVQFNWYVDGVEVHNAKTKPREEQFNSTFRVVSVLTVVHQDWLNGKEYKCKVSNKGLPAPIEKTISKTKGQPREPQVYTLPPSREEMTKNQVSLTCLVKGFYPSDIAVEWESNGQPENNYKTTPPMLDSDGSFFLYSKLTVDKSRWQQGNVFSCSVMHEALHNHYTQKSLSLSPGK light: DIELTQPPSVSVAPGQTARISCSGDNIGSFYVHWYQQKPGQAPVLVIYDKSNRPSGIPERFSGSNSGNTATLTISGTQAEDEADYYCQSYANTLSLVFGGGTKLTVLGQPKAAPSVTLFPPSSEELQANKATLVCLISDFYPGAVTVAWKADSSPVKAGVETTTPSKQSNNKYAASSYLSLTPEQWKSHRSYSCQVTHEGSTVEKTVAPTECS", "values": [{"measurement": "inhibition of tumor growth (tumor volume)", "setting": "[1]", "value": "inhibited tumor growth of the OMP-C28 colon tumor cells to a greater extent than either the Wnt pathway inhibitors or nab-paclitaxel alone"}, {"measurement": "regression of established tumors", "setting": "[2]", "value": "induced a regression of the established breast tumors"}, {"measurement": "inhibition of tumor growth (tumor volume)", "setting": "[2]; versus other dosing regimens", "value": "significantly better at inhibiting tumor growth of the OMP-B90 breast tumor cells than any of the other dosing regimens"}, {"measurement": "adverse events leading to discontinuation", "setting": "[3]", "value": "fragility fractures observed"}]}
